A short description of the data set: label from the status in PepcDB records.
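Note: failed if final PepcDB status was selected cloned or expressed and not failed if soluble or beyond.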

As to “MVFIDNLGLMLFILPLVSVLIAYTTVQAFIGFRKTGYEAIKRSLDDSILPAAILGTIIIILSLWGEFSWTLPGSYNILFYDVYLLLGITILSYSVTVYMGKRLQSTGIFALFVGLITIYYGASGYNLGLTKEPLALLALYTTYGIAGILGYPVTLALDRLRDQQGVKDPKLEGWMYAFFILFWIFVIIAGIIGAFIAVETIPAHLAHPP”, the protein production result was “failed”. As for “MVFIWSLIFIVILSVVFTTNIKKNYKGWYALASFISILVSIYEVMRIVSHPKLNGVILSIEQAFMKGNVAIAFFILVMFAGALSTKQVIGKKLMSIRAELAILGSILILPHGIIYFVRFLIIKLPKILNGKANATLYLIYISIGIIAFIIMIPLFITSFKSVRKRLGGFRWKKLHRWSYVFYCLIYLHIILALLNGKINFIKIILYTFIFMVYTVMKFIKHRNIKLRRKS”, the entry is “failed”. As for “MVFNLVVNIIGIVVFIAIAYLFSKQKHAINWRSVGVMLVLEVLLAWFLTGSQVGVDAVKAAADGFTWLVNVSYDGIAFALASWVNVKSMDFVTSSLLPILLIVPLFDILTYIGVLPWIIKWVGRGLAYITGQPKFESFFVVEMMFLGNTEALAVSQLQLKQMKAQRNLTIAMMSMSCVTASILGAYIKMMPGQFILTAVPMNVLNAAIIAAILNPVEVKPEEDTIAKISGSAAVEETTATTETSGSEELANEQVKEAKPAREPFFSFLGDSILGAGRLILIIAANVIAFVALAKLIDKLLGLINSNLSLENIFGVVMFPFAWLLGFNPSDAFQMASYMGTKLVTNEFVVMGEVSSKVNDFAPHFRAVLTVFLTSFANFSTIGMIIGAFKGIVDREKNDLISRNVGYMLLSGILVSLLSAGVVGLFVW”, the entry is “failed”; as for “MVGEVVLVNAYKKFFREYFNFKGKTSRLDFWYVILSLLILSIIPTAILSYLIFGSLMSISGGGNVQEIMEITFLNIPIFIIGIIYLFLFVPVITMTVRRWRDVGLRASGIILIFCLLVLIVILGFIIHLKQNIIIDFLIVISSSMFLITLMPSQICCTNSKNRISQFFFCSKGER”, “failed”; as for “MVGIYIGSTAAAAGKNLACMALGLVLGRDGRSVGYMKPYGQRPRMVDDRTGDIDAMLVQEVLGQNADPEVVTPVVEPANIRAMSLRGGNALERVGAAYTALARGRDVMLVGGTGSLFHTGRARGLDGLALVRRLDLRVVLVERYHPHPEGGGIDHDAILYAADVLGDRLAGVLLNDLPESYQRDAEEVLVPYLAEHGVRVLGLVPHDPLLHAIRASDLAVRLGGRLVCGGKGSQRLVEGFLIGTMQVENFMSHFRRHANTATIVGGDRTDLQLVALEGQCPCLVLTGNMPPDELIRQRSEQHGAPVIVVREDTYTVARKMEEILNSQKLRDLVTIRRGADIVAGALDRAALLAQTGIPKGENR”, “failed”. Turning to “MVGLLVEDTIDDQGWNRKAYEGLLNIHSNLDVDVVLEEGVNSEQKAHRRIKELVDGGVNLIFGHGHAFAEYFSTIHNQYPDVHFVSFNGEVKGENITSLHFEGYAMGYFGGMVAASMSETHKVGVIAAFPWQPEVEGFVDGAKYMNESEAFVRYVGEWTDADKALELFQELQKEQVDVFYPAGDGYHVPVVEAIKDQGDFAIGYVGDQADLGGSTILTSTVQHVDDLYVLVAKRFQEGKLESGNLYYDFQDGVVSLGEFSSVVPDEVREQITDAISTYIQTGQFPHEEER”, the protein production result is reported as “not failed”.

For the sequence “MVGLVACSKQSANQQISYRQTAEATLDKGMDNQPEAPYWFPKQLLKWQLSKDKAAKYNTASVPLAKRIDKWQLPTVNKTQDPKMKVVALSIMNSSTSGNAPRGINTFDANVFSNWQYIDQLVYWGGSAGEGLIVPPTADVIDSAHKNGVPVLGTVFFPQVVSGGKLKWLNDFLKQDADGHFPMADKLVAVAKAYGFDGWFINQETDPEVKSFDSASTGKTATSSTSNGLSKKHAQLMQQLIKEYKQKAGSKLDLMWYDSMTKDGKMDWQNALTKENQSYLVDANMKPVADSMFLNFWWTKKRLASQELLKKSHERAEKLGISPYNLFAGIDVQADGTATPVRWNLFANKQHVPYTSLGLYAPDWTHASSDTVDEFQAKEGALWVNDQNDPSRLEHHHHHH”, the protein production result is listed as “not failed”.

For the sequence “MVGPLGKPIKVKYYGNVVFASDAVCGQAENYATLKAMKEVGNYTISIQTFENAENVYPEEFLAKPVADEHYLTTEDGSVGIKGHYLDIVKELIEKDKVDIIFAGGKLGSLAKLAELTRPYGIPTYATVRQIMVDGLEHHHHHH”, the protein production result is “not failed”. For the sequence “MVGSVYTLFLYFSIILGVIVGVRTRSFHSSLAVLVFSSTFVAGIKYNNSYIAIISWLALSTLSSYLFHLNVIIKSRKDESVSNVLMGYLLGFFILLTLKLHGAGWILSILASYWVFYILLMFDYSKNRRAYYLLKTLWIIFSWGALIEAFGLQKELLPFLVVYTLIFILWFKRQEYSPT”, the protein production result is recorded as “failed”.

For “MVGTFLGTGASSGVPMLNCSCKVCTSSYSKNKRLRSSFFLESSSGIKLLIDTGPDIRQQLLREKIDRLDLVLYTHEHYDHIMGFDDIKFYTRCAPLNIYARDTAMAHIRNAFPYNFTSKPSLSGKADIIANVIRDFEPFFFKSLKIVPIPLIHGDIISLGYRVGNLAYLTDVKFIPEASYDYLKNLDLLIIDAMRIKPHPAHLNFSEAFCVIKKINPKISYFTHIAHDIMHEEFDYLEKDNIYLAYDGLKIYILEHHHHHH”, the protein production result is listed as “failed”. Next, “MVHETDKDPAPAVGPLASAMPRGNFAASLRSPGAKFLMIGFISLVLLVPLLLVWGLTEERASRAREVSARIANGWGGDQVVNGPYLAVPFDVERRREVDGRTIVDRTTEWALVMPETLQVTADLKTEEKKLSIYSLPVYNGALVLKGRFGQGVLQDLARFAGTPRLDNAILVLSIGDITGIRSSAGVRINGGAVLPFDPGMRDMSVIASRALENNSIRSDAGVHRQIDRNLIESGFDFDIAFSLNGSGSFAVAPAGQTTSFTAKADWPHPGFEGLFLPEVKTVTAADFNASWTIPYLARGIDRVVEGPRLPLSNSLMTINLVEPVKFYQVIARTLKYSIGFISLVFLAVFIVELKGGSVVHWIQYVLTGLALIVFYVLLLALAEHTGFTVAYAAASFSTAALIAFYLGSATRSRRNGLALFSVLAVAYGVMYLVLNEDEYALLAGAVISFIAIAATMFATRKVDWSGAGTAANSEFSSRT”: “failed”.

As to “MVHGLDRRLGLAGRIRPDALVADRCGTLIMLAGERFYRLDPMSGRLERIPCLGGRGDRAGELSGPRAMALGSRNLYVADTDNNRVCVFATVNWQVRRFIGAENPAGEPAAGTGPGEFDRPLDLAVDPCDNLYVLDAGNRRIQRFDYHGEPVPHVPPFGADRLKQPVALALGPAPSPSGGGALVHCLDTGLTAIVTFDDQGRFLGTVGLDDLGFEPAGLAVDADGKWYVSDRERFIYAIRSAGDWSPLEEYEGKALRLFAGPGGEFYALEDGEVARLTRRRRYPPAGSWTGSGPVTGIYTSRSFDTGDGRLFWHRVTLDATVPPKTQVRLSYFIYETGRDPELLPADGEWRSFPSNPADALFERKEGRYLRVRLELISEDRHATPTVVSLRLQFPKQSYLRYLPAVFQDDERGRDFLERFLSLFESVLYDLEREIFTTRRYADPCAVPAGFLPWLASWLALPDADQWLEDGGARLRTLIARANELYRCRGTRGGLAELITLYTGKEPWIVEAFQLDRIRGRSEWRETMRLFGEDPYHFTVLLPPGGAGRTETVKRIVARERPAHTCATVVALENLFRLGGHTYLEVNTNLNQPLFALETSSSLARQTYLADGEKAGQAQVRARQGMDTLFE”, the protein production entry is recorded as “failed”.

Regarding “MVHHGQMHAQPGVGLRPDTPVASGQLPSTSIRSRRSGISKAQRETWERLWPELGLLALPQSPRGTPVDTRAWFGRDAPVVLEIGSGSGTSTLAMAKAEPHVDVIAVDVYRRGLAQLLCAIDKVGSDGINIRLILGNAVDVLQHLIAPDSLCGVRVFFPDPWPKARHHKRRLLQPATMALIADRLVPSGVLHAATDHPGYAEHIAAAGDAEPRLVRVDPDTELLPISVVRPATKYERKAQLGGGAVIELLWKKHGCSERDLKIR”, the protein production entry is “failed”. Regarding “MVHMGYKITDKRDLSPIDFFVEVEAPHIAKAWKPGQFVIFILHERGERVPMSVYKAENGRIGMFIRKLGKTSLQLYYEFNVGDEFYSMVGPLGKPIKVKYYGNVVFASDAVCGQAENYATLKAMKEVGNYTISIQTFENAENVYPEEFLAKPVADEHYLTTEDGSVGIKGHYLDIVKELIEKDKVDIIFAGGKLGSLAKLAELTRPYGIPTYATVRQIMVDGTGMCGSCRILYDGEVKFACRDGPVFDAHKVDWEDVLRRANRFLEQERLAKERYLEYLRKKGVI”, the protein production result was “failed”. Next, “MVHQSEMENYNIGQASIEEVSDPAYKGAKIVVIGVGGGGSNMIKHLVEYGVHQDVTPIATNTDGQHLKNNPAPVKILLGKESTGGLGAGGIPDIGRKAAEESANEIKEAIKDAKLVIISTGLGGGTGTGATPTIVKIAKEVGALTIAIVTKPFKYEGNQKRKRAEEGLKELEQSSDSILVIPNDKILLTMKKNASTTECYREVDDVLVRAVSGISTIITKPGNINVDFADLKSALGFKGFALMGIGEATGEESAKLAVQNAIQSPLLDDASIEGAKSIIVFFEHHPDYPMMAYSQACDFIQDQAHQDVDVKFGQHTSDNIPIDHVRVTIIATGAERNSGGASLESIATPSQPVVKQTRKVGNGEYLKIPTEEELSIPTTMRIQQD”: “failed”; “MVIGLIATLYRPKEATLYVLLYLLLGAIGLPVFSGGNGGLHTFIGQTGGFLLFFPLRALVTSLIANRKKILIQIFIANFLGEVVLFIGGAIGFIIFTHSLILTTLKLVVLPFVLPDLIKITLTTLFSLLLLKALQSQSYFKIEK”: “failed”. Turning to “MVINLNDKQTKTSKEGLISVSHPLAAKIGKDVLDQGGNAMDAVIAIQLALNVVEPFASGIGGGGYLLYYEQSTGSITAFDARETAPEHVDKQFYLDDSGEYKSFFDMTTHGKTVAVPAIPKLFDYIHKRYAKLSLEDLINPAIELAIEGHAANWATEKYSRQQHARLTKYHETAQVFTHENQYWREGDWIVQPELGKTFQILREQGFNAFYKGDIAKQLVNVVKACGGTITLEDLAKYDIQIKAPISATFKDYDIYSMGPSSSGGITVIQILKLLEHVDLPSMGPRSVDYLHHLIQAMHLAYSDRAQYLADDNFHEVPVQSLIDDDYLKARSTLIDSNKANIDIEHGVVSDCISHTDVEENHTETTHFCVIDKEGNIASFTTSIGMIYGSGITIPGYGVLLNTTMDGFDVVDGGINEIAPYKRPLSNMAPTIVMYHGKPILTVGAPGAISIIASVAQTLINVLVFGMDIQQAIDEPRIYSSHPNRIEWEPQFSQSTILALIAHGHAMEHKPDAYIGDVHGLQVDPTTYEASGGSDDTREGTVMGGEVLVIRKQPLPYRQMYDSDGFRLYFNDVQLPLLADQVRWMHDKYWVDESVVRIIFPEVSAHIEDLRSYENAGENYIDIAWLARKYAYQVTLKDDGLYLTDDTYTSVKRNTNAYYRYDRDSITR”, the protein production result was “failed”. As for “MVIPFARSVPLSPNTLTLLGFAVSVAAGVAFALGKPFEGGFLILFSGVFDILDGGVARAKGRITPFGGVLDSVCDRYSDGLMFLGIMAGAIYGRLSFAPFLGVEGWLWAGFALIGSFLVSYTRARAESAGCRKLSVGIAERTERMVILALGALSGFLGWALVLIAVFSHITMIQRVLRAKSILSSPSEPESQKP”, the entry is “failed”; as for “MVIPFISGTLCQFQLSRWLITQAPALPCGPKLGAPTRQRRGCKVAQLWMYFLALAVVYLLPGPDMILLLQTGARQGKAQALATALGLALSRGCHVALAALGLAALFKAAPWTFDLVRLAGAAYLLWIGIQCLRANLLPNLEPGTAAATPLRWREAIQRGLLTNLLNPKALLFCSVLLPQFVDPQAGAVVPQFMTLGVLLVAVGGLFDCCYALAGAGLGRWMQRSPSAQRVQQWLFGSLLIGFALRLTFVQQA”, “failed”.

With “MVIPSILEQAHALAGRAVGEGGIAVDATVGNGHDTAFLAQAVGAGGAVVGFDVQEEALVETRHRLEREALSAPVRLVHAGHQTLARHLEEAERGRVGAIMFNLGYLPGGDHSVVTRPETTRQALDAGTEALRPGGVITVVAYTGHEGGDEEADAVEAWASALPQAQFRALSYRFPNWSNDPPRLFAVEKRDALEHHHHHH”, the protein production entry is recorded as “failed”.

Values taken from a protein production outcome set (Wang et al. 2014).
